# Source: patent US20070009524A1
# B1: chimeric mouse/human IgG1 anti-platelet mAb (7E3) (antibody, INN chains, looked up, V domains shown)
# VH: EVQLQQSGTVLARPGASVKMSCEASGYTFTNYWMHWVKQRPGQGLEWIGAIYPGNSDTSYIQKFKGKAKLTAVTSTTSVYMELSSLTNEDSAVYYCTLYDGYYVFAYWGQGTLVTVSA
# VL: EIVLTQSPVTLSVTPGDSVSLSCRASRDISNNLHWFQQTSHESPRLLIKYASQSMSGIPSRFSGSGSGTDFTLSINSVETEDFGMYFCQQTNSWPYTFGGGTKLEIK
# modifications: chimeric IgG1
# Key:
# [1] = biological target: human lymphotoxin (TNFβ) (human) (UniProt P01374); experiment: cell-based or functional assay
# human lymphotoxin (TNFβ) (human), sequence (P01374 35-205 limits assumed): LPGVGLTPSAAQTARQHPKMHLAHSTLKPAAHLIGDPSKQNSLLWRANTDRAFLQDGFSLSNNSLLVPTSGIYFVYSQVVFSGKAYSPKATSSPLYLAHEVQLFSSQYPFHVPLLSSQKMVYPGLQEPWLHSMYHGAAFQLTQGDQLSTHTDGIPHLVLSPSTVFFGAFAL
# [2] = biological target: human tumor necrosis factor-α (TNFα) (human) (UniProt P01375); experiment: cell-based or functional assay
# human tumor necrosis factor-α (TNFα) (human), sequence (P01375 77-233): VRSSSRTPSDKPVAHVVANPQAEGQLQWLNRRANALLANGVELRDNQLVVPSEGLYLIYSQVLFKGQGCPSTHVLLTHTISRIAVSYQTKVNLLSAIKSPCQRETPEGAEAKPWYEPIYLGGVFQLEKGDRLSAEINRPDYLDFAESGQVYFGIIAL
Molecule,concentration to half-inhibit human TNFβ at 2 pM (WEHI 164 cytotoxicity) [1],"IL-6 secreted by FS-4 fibroblasts, TNF 0.3 ng/ml, 4 µg/ml antibody [2]","IL-6 secreted by FS-4 fibroblasts, TNF 1.5 ng/ml, 4 µg/ml antibody [2]","IL-6 secreted by FS-4 fibroblasts, TNF 7.5 ng/ml, 4 µg/ml antibody [2]"
p75P-sf2 fusion protein (from UniProt P20333 23-204) (Fc fusion),31 pM,,,
B1,,1.6 ng/mL,1.96 ng/mL,2.16 ng/mL
